# Assays:
# α5β1 integrin = target: T1, α5β1 integrin (Homo sapiens, UniProt P05556+P08648); experiment: Immunoprecipitation of α5 integrin in Triton X-100 fractionated lysates, blotted for β1; format: cell-based; details: after AXT107 treatment; data not shown
# T1 construct: host or cells: human dermal microvascular endothelial cells (MECs)
# Source text: Since β1 integrin is the only known β subunit to heterodimerize with the α5 integrin subunit, it unlikely that the α5 subunit, that was observed here in the insoluble fractions, originated from a heterodimeric integrin pair other than α5β1. Unfortunately, high background impaired the visualization of α5 integrin alone by immunofluorescence. Given the unexpected discovery that AXT107 dissociates the integrin heterodimer, this discovery was confirmed in several independent assays. […] Thus, interactions between Tie2 and heterodimerized α5β1 integrin appear to retain Tie2 at the EC-ECM interface.
# (§1) The isolation of Triton X-100 soluble and insoluble fractions was performed using modifications to previously-described procedures (see, e.g., Lampugnani et al., J Cell Biol. 1995; 129(1):203-217). FN1-coated six-well plates were seeded with 2.5×10^6 cells and cultured for forty-eight hours, as described above. The cultures were then serum starved for ninety minutes in EBM-2 media, treated with 100 μM AXT107 or DMSO vehicle, and fifteen minutes with 1 mM sodium vanadate. The cells were then stimulated with either 100 ng/ml VEGFA, 400 ng/ml Ang2, or PBS for fifteen minutes. The plates were then transferred to ice and washed twice with cold dPBS containing Ca^2+ and Mg^2+ and twice with EBM-2 media. […] Samples were analyzed by western blot as described above. […]
# VE-cadherin = experiment: Western blot of VE-Cadherin from MEC monolayers; format: cell-based, human; details: three hours of AXT107 and Ang2 treatment
# Procedure: The jaggedness of these junctions is related to the structure of actin within the cell.
# For Ang1/2 signaling investigations, cell culture dishes (10 cm diameter) were coated with 5 μg/ml fibronectin (FN1; Sigma-Aldrich, St. Louis, Mo.) for two hours at 37° C. The FN1 solution was then removed by aspiration and 5×10^6 microvascular endothelial cells (MECs; Lonza, Walkersville, Md.) were plated in EGM-2MV media (Lonza) and cultured for forty-eight hours at 37° C. The cells were then serum starved for sixteen hours in serum-free EGM-2 base media (Lonza). […] The cells were then transferred to ice, washed twice with ice cold Dulbecco's phosphate-buffered saline (dPBS) containing Ca^2+ and Mg^2+, and collected by scraping in 500 μl of 1× Blue Loading Buffer (Cell Signaling, Danvers, Mass.). […] Specific proteins were identified by Western blot, using the following primary antibodies: Cell Signaling—phospho-Tie2 (Y992) (Cat #: 4221), Tie2 (Cat #: 7403), phospho-Stat3 (Y705) (Cat #: 4113), Stat3 (Cat #: 4904), phospho-Akt (S473) (Cat #: 4058), Akt (Cat #: 9272), phospho-p44/42 MAPK (T202/Y204) (Cat #: 4370), p44/42 MAPK (Cat #: 4695); BD Transduction Laboratories—β1 integrin (Cat #: 610467); Millipore—α5 integrin (Cat #: AB1928) and detected with HRP-conjugated goat anti-rabbit and sheep anti-mouse secondary antibodies (GE healthcare).
# Tie2 / α5 integrin = target: T2, Tie2 / α5 integrin (Homo sapiens, UniProt P08648); experiment: Tie2 immunoprecipitation from fractionated lysates, blotted for α5 integrin; format: cell-based; details: peptide-treated insoluble fraction; with 200 ng/ml Ang2 or no growth factor
# T2 construct: host or cells: human dermal microvascular endothelial cells (MECs)
# T2 sequence (P08648 42-894 limits assumed): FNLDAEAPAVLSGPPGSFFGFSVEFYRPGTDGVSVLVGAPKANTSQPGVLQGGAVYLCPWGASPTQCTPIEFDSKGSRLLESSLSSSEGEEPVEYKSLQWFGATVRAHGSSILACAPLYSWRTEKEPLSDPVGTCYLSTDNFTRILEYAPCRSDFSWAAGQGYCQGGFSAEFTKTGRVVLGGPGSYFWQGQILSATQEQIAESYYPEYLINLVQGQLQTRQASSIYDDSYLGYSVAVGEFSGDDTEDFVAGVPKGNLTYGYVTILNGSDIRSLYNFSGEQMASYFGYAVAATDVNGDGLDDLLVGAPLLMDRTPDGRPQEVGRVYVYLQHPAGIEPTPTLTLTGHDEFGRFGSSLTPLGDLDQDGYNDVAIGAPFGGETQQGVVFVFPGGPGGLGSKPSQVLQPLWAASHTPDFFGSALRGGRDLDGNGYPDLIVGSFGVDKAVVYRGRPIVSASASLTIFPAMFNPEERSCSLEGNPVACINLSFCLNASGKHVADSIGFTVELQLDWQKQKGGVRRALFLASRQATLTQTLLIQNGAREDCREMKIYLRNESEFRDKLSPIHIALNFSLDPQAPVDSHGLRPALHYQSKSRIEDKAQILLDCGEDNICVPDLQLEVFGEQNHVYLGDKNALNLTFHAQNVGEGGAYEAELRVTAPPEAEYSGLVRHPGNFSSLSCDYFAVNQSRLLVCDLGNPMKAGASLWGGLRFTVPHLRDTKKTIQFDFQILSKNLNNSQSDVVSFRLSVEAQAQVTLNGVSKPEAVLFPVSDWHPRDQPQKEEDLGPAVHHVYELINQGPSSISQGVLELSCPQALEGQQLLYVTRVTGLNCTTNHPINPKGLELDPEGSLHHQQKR
# T2 sequence (P08648 895-1049 limits assumed): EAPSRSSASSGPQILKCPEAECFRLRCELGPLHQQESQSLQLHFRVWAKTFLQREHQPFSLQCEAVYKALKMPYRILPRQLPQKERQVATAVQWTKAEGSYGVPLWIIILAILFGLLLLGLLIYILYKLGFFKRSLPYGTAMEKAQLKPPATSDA
# T2 sequence (Q02763 23-1124 partner): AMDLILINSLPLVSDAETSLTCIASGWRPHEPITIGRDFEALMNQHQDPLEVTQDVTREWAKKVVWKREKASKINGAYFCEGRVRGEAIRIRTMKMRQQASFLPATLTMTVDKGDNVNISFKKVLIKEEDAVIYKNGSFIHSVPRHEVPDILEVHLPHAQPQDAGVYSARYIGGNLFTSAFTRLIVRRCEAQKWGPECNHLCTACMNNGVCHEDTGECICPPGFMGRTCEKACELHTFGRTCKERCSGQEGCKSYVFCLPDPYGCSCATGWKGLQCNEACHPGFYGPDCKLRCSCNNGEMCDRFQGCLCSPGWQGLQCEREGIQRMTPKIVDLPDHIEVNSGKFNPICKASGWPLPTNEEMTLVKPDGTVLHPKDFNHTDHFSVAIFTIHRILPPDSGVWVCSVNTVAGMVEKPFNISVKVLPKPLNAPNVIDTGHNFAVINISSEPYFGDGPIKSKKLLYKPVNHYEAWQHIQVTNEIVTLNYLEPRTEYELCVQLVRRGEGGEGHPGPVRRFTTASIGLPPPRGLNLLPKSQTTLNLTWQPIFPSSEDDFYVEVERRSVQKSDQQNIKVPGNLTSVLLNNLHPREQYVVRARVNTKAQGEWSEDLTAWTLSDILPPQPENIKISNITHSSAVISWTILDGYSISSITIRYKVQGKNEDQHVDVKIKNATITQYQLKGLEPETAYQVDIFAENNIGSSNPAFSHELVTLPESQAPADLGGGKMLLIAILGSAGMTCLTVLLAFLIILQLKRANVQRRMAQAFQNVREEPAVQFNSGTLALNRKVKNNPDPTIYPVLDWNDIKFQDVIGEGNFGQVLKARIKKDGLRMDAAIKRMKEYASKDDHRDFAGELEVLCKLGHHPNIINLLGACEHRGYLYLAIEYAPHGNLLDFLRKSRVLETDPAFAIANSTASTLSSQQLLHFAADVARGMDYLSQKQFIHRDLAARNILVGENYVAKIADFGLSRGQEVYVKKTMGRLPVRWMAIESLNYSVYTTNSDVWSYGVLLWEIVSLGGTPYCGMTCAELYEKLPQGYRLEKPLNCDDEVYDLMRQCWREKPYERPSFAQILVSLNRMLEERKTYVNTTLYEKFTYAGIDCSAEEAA
# Procedure: Finally, it was determined whether or not the α5 integrin subunit remains complexed with Tie2 following its disassociation with β1 integrin.
# as §1, with “media. The media was then removed and the cells incubated for thirty minutes on ice, at 4° C. in 200 μl of Triton X-100 extraction buffer (10 mM Tris-HCl, pH 7.5; 150 mM NaCl; 2 mM CaCl2; 1% NP-40; 1% […]; and a protease inhibitor cocktail (Cell Signaling, Cat #: 5871)) with occasional agitation. The extraction buffer was gently collected and centrifuged at 12,000×g for five minutes.” for “media.”
# T1 sequence (P08648 42-894 limits assumed): as the sequence (P08648 42-894 limits assumed) above
# T1 sequence (P08648 895-1049 limits assumed): as the sequence (P08648 895-1049 limits assumed) above
# T1 sequence (P05556 21-798): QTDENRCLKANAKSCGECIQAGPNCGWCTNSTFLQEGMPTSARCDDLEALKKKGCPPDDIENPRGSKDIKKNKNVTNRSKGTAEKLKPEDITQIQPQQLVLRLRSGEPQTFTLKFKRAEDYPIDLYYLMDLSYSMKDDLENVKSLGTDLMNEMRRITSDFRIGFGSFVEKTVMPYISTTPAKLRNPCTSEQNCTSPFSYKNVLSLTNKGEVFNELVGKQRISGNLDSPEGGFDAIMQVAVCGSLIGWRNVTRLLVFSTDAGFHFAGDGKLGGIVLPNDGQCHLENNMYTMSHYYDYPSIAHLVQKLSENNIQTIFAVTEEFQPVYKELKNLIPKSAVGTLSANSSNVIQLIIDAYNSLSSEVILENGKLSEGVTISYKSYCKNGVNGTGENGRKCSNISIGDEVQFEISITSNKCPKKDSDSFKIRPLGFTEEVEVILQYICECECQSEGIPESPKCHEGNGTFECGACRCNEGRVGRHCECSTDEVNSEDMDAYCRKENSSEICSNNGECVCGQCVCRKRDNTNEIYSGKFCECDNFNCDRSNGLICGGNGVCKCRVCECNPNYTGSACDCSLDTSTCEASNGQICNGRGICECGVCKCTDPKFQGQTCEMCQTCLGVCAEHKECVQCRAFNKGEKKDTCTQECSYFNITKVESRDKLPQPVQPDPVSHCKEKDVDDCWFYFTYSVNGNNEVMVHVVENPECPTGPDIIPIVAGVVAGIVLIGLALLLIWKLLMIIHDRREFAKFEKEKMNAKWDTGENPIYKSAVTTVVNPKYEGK
sequence,measurement,setting,value
LRRFSTAPFAFIDINDVINF [AXT107],α5-β1 interaction by fraction after α5 immunoprecipitation,α5β1 integrin,interactions with β1 were only found in the soluble fractions
same,Total level of VE-cadherin,VE-cadherin,remained unchanged
same,α5 integrin complexed with Tie2,Tie2 / α5 integrin,"α5 integrin was observed in the peptide-treated, insoluble fraction following immunoprecipitation of Tie2"

# From patent US11674959B2, “Methods for identifying and preparing pharmaceutical agents for activating Tie1 and/or Tie2 receptors” (The Johns Hopkins University, priority 2017, dated 2023)
